Reference: patent US20120264231A1, “ASSAY FOR ORAI CALCIUM CHANNEL REGULATORS” (IMMUNE DISEASE INSTITUTE, INC., priority 2009, published 2012)

What was measured:
GST-ORAI1 (65-87) = molecular target: T1, GST-ORAI1 (65-87) (Homo sapiens, UniProt Q96D31); experiment: GST pull down assay with GST-ORAI1 (65-87); format: binding
T1 construct: A plasmid encoding ORAI1 (65-87) as a GST fusion protein; made in house; host or cells: E. coli BL21 (DE3), pGEX-2T
Source text: A conserved region of ORAI1 immediately preceding, and extending into, ORAI1 transmembrane segment 1 is implicated in channel opening (Feske et al., Nature 441: 179-185 (2006); Li et al., J. Biol. Chem. 282: 29448-29456 (2007); Park et al., Cell 136: 876-890 (2009); Derler et al., J. Biol. Chem. 284: 15903-15915 (2009)), and GFP-ORAI1 (48-91) expressed in mammalian cells co-immunoprecipitates with STIM1 (342-448) (Park et al., Cell 136: 876-890 (2009)). Here again, the protein-protein interaction is direct, because purified recombinant STIM1CT bound to purified GST-ORAI1 (65-87) (FIG. 2C).
(§1) The cDNAs encoding mouse STIM 1^CT fragments (residues 233-685, 233-666, 233-600, 233-531, 233-498, or 233-463) were amplified via PCR and cloned into the pProEX HTb vector (Invitrogen) between the BamHI and XhoI sites for expression as His-tagged proteins. For production of the C-terminal cytoplasmic tail of ORAI 1 as a GST fusion protein, coupled to GST through the flexible linker—GSGSRGSPEF—(SEQ ID NO: 1), cDNA encoding ORAI1 residues 259-301 was amplified using PCR and cloned into the pGEX-4T-1 vector (GE Healthcare) between the BamHI and NotI sites. A plasmid encoding ORAI1 (65-87) as a GST fusion protein with the linker—GSGGGS—(SEQ ID NO: 9) was produced by inserting the corresponding Cdna into the pGEX-2T vector (GE Healthcare). […]

GST-ORAI1^CT = molecular target: T2, GST-ORAI1^CT (Homo sapiens, UniProt Q96D31); experiment: GST pull down assay with GST-ORAI1^CT (residues 259-301); format: binding; conditions: SDS-PAGE, Coomassie staining
T2 construct: cDNA encoding ORAI1 residues 259-301 was amplified using PCR; made in house; host or cells: E. coli BL21 (DE3), pGEX-4T-1
Source text: Recruitment of ORAI1 to puncta by full-length STIM 1 depends on a direct or indirect interaction of STIM 1 with the C-terminal cytoplasmic tail of ORAI134,51. Therefore the direct interaction of recombinant STIM 1 proteins was next examined with a bacterially expressed fusion protein, GST-ORAI^CT, containing the cytoplasmic tail of ORAI1, residues 259-301. STIM 1^CT and the other STIM 1 fragments, except for STIM 1 (233-463), bound to GST-ORAI1^CT immobilized on resin (FIG. 2B). Binding was dependent on recognition of ORAI^CT, since there was no binding to GST alone. Because all input and bound proteins on the gel was visualized with Coomassie Brilliant Blue staining and detected no other proteins, the current experiment is unambiguous proof of a direct protein-protein interaction between STIM 1^CT and ORAI1^CT.
as §1, with “sites.” for “sites. A plasmid encoding ORAI1 (65-87) as a GST fusion protein with the linker—GSGGGS—(SEQ ID NO: 9) was produced by inserting the corresponding Cdna into the pGEX-2T vector (GE Healthcare).”

[1] = Pichia membrane flotation assay, control membranes; format: binding, Pichia pastoris; conditions: membranes from yeast not expressing ORAI1
Experimental: A membrane flotation assay was used to evaluate binding of these recombinant STIM 1 proteins to ORAI1. For these experiments ORAI1 (65-301) was expressed, an N-terminally truncated ORAI1 protein that forms functional Ca^2+ channels in mammalian cells (Li, Z., et al., J Biol Chem 282, 29448-29456 (2007)), in the yeast Pichia pastoris. Microsomal membranes were prepared from P pastoris expressing ORAI1 (65-301), layered at the bottom of a discontinuous sucrose gradient, and centrifuged. After centrifugation, the recombinant ORAI 1 was recovered near the top of the gradient in the fraction visually identified as containing membranes (FIG. 2A), as expected for an integral membrane protein.
Microsomal membranes, prepared from yeast Pichia pastoris expressing human ORAI1 (65-301) with an N-terminal FLAG tag and the substitutions E106Q and N223A, were resuspended in 10 mM HEPES pH 7.4, 150 mM NaCl, 1 mM DTT, 10% glycerol, briefly sonicated, brought to 25 mM EDTA by addition of EDTA from a concentrated stock, layered over a 0.5 M sucrose cushion, and centrifuged at 149,000×g for 1 h at 4° C. in a Beckman airfuge. […] FLAG-tagged ORAI1 was detected using anti-FLAG M2 monoclonal antibody (Sigma) and His-tagged STIM1^CT fragments were detected using anti-His-Tag monoclonal antibody (27E8 clone, Cell Signaling Technology).

T1 sequence (Q96D31 65-87 limits assumed): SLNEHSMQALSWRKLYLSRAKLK
T2 sequence (Q96D31 259-301): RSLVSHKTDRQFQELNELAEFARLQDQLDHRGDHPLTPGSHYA

In the case of “STIM1^CT: cytoplasmic region of STIM1, mouse residues 233-685, His-tagged recombinant protein expressed in E coli”, the “binding to purified GST-ORAI1 (65-87)” value (GST-ORAI1 (65-87)) is reported as “bound”, the “strength of interaction compared with STIM1^CT-ORAI1^CT interaction” value (GST-ORAI1 (65-87)) is reported as “weaker” and the “binding to GST-ORAI1^CT immobilized on resin” value (GST-ORAI1^CT) is reported as “bound”. For the same substance, the “position in gradient with control membranes” value [1] was “remained at the bottom of the gradient”.
